Test results published in article PMC7299343, “Two forms of Opa1 cooperate to complete fusion of the mitochondrial inner-membrane” (eLife, 2020).
Where a chain is given by its changes, count along the chain named. Names and notes keep the numbering of the source.

B1: short form of human Opa1 (s-Opa1, S1 form), wild type (natural protein, UniProt O60313-1 195-960, looked up)
chain: ATDRGSESDKHFRKVSDKEKIDQLQEELLHTQLKYQRILERLEKENKELRKLVLQKDDKGIHHRKLKKSLIDMYSEVLDVLSDYDASYNTQDHLPRVVVVGDQSAGKTSVLEMIAQARIFPRGSGEMMTRSPVKVTLSEGPHHVALFKDSSREFDLTKEEDLAALRHEIELRMRKNVKEGCTVSPETISLNVKGPGLQRMVLVDLPGVINTVTSGMAPDTKETIFSISKAYMQNPNAIILCIQDGSVDAERSIVTDLVSQMDPHGRRTIFVLTKVDLAEKNVASPSRIQQIIEGKLFPMKALGYFAVVTGKGNSSESIEAIREYEEEFFQNSKLLKTSMLKAHQVTTRNLSLAVSDCFWKMVRESVEQQADSFKATRFNLETEWKNNYPRLRELDRNELFEKAKNEILDEVISLSQVTPKHWEEILQQSLWERVSTHVIENIYLPAAQTMNSGTFNTTVDIKLKQWTDKQLPNKAVEVAWETLQEEFSRFMTEPKGKEHDDIFDKLKEAVKEESIKRHKWNDFAEDSLRVIQHNALEDRSISDKQQWDAAIYFMEEALQARLKDTENAIENMVGPDWKKRWLYWKNRTQEQCVHNETKNELEKMLKCNEEHPAYLASDEITTVRKNLESRGVEVDPSLIKDTWHQVYRRHFLKTALNHCNLCRRGFYYYQRHFVDSELECNDVVLFWRIQRMLAITANTLRQQLTNTEVRRLEKNVKEVLEDFAEDGEKKIKLLTGKRVQLAEDLKKVREIQEKLDAFIEALHQEK
notes: OPA1, human, short form corresponding to the S1 form that results from Oma1 cleavage, residues 195-960 of UniProt O60313-1, codon optimized for Pichia pastoris; Construct: Twin-Strep-tag, HRV 3C site, (G4S)3 linker at the N-terminus; (G4S)3 linker, TEV site, deca-histidine tag at the C-terminus; His tag said to be cleaved with TEV in all the functional assays; also called WT s-Opa1; …
B2: G300E mutant of s-Opa1 (s1) (natural protein, human, UniProt O60313-1 195-960, looked up)
chain: B1 chain with G106E
notes: OPA1, human, short form (S1), residues 195-960 of UniProt O60313-1, with G300E; same tags and linkers as m2; also called G300E s-Opa1; sOPA1 (G300E); source: Pichia pastoris SMD1163, purified
B3: long form of human Opa1 (l-Opa1), wild type (natural protein, UniProt O60313-1 88-960, looked up)
chain: FWPARLATRLLKLRYLILGSAVGGGYTAKKTFDQWKDMIPDLSEYKWIVPDIVWEIDEYIDFEKIRKALPSSEDLVKLAPDFDKIVESLSLLKDFFTSGSPEETAFRATDRGSESDKHFRKVSDKEKIDQLQEELLHTQLKYQRILERLEKENKELRKLVLQKDDKGIHHRKLKKSLIDMYSEVLDVLSDYDASYNTQDHLPRVVVVGDQSAGKTSVLEMIAQARIFPRGSGEMMTRSPVKVTLSEGPHHVALFKDSSREFDLTKEEDLAALRHEIELRMRKNVKEGCTVSPETISLNVKGPGLQRMVLVDLPGVINTVTSGMAPDTKETIFSISKAYMQNPNAIILCIQDGSVDAERSIVTDLVSQMDPHGRRTIFVLTKVDLAEKNVASPSRIQQIIEGKLFPMKALGYFAVVTGKGNSSESIEAIREYEEEFFQNSKLLKTSMLKAHQVTTRNLSLAVSDCFWKMVRESVEQQADSFKATRFNLETEWKNNYPRLRELDRNELFEKAKNEILDEVISLSQVTPKHWEEILQQSLWERVSTHVIENIYLPAAQTMNSGTFNTTVDIKLKQWTDKQLPNKAVEVAWETLQEEFSRFMTEPKGKEHDDIFDKLKEAVKEESIKRHKWNDFAEDSLRVIQHNALEDRSISDKQQWDAAIYFMEEALQARLKDTENAIENMVGPDWKKRWLYWKNRTQEQCVHNETKNELEKMLKCNEEHPAYLASDEITTVRKNLESRGVEVDPSLIKDTWHQVYRRHFLKTALNHCNLCRRGFYYYQRHFVDSELECNDVVLFWRIQRMLAITANTLRQQLTNTEVRRLEKNVKEVLEDFAEDGEKKIKLLTGKRVQLAEDLKKVREIQEKLDAFIEALHQEK
notes: OPA1, human, long form, residues 88-960 of UniProt O60313-1 (isoform 1), codon optimized for Pichia pastoris; Construct: Twin-Strep-tag, HRV 3C site, (G4S)3 linker at the N-terminus; (G4S)3 linker, TEV site, deca-histidine tag at the C-terminus; also called WT l-Opa1; TwinStrep-lOPA1-H10

Columns and labels:
[1] = molecular target: the molecule itself; experiment: native gel or EMSA; Blue native PAGE (BN-PAGE), 3-12% Bis-Tris gradient gels, sample buffer with 0.25% Coomassie G-250 and 1 mM DDM, cathode buffer with 1 mM DDM, 4 °C; mixtures of l-Opa1 and s-Opa1 incubated on ice for 10 min before loading
[2] = molecular target: B3; experiment: as above; settings: both partners purified

Row | binding result [2] | Binder | binding result [1]
1 | – | B1 | binds
2 | binds | B2 | –
3 | – | B3 | binds
